Laboratory results from patent publication US20200181597A1, “Composition and Application of Arginine-depleting Agents for Cancer, Obesity, Metabolic Disorders, and Related Complications and Comorbidities” (THE HONG KONG POLYTECHNIC UNIVERSITY, priority 2018, published 2020).

Assays:
plasma arginine = test: Plasma arginine after single i.p. 500U N-ABD094-rhArg (LC-MS/MS); type: in vivo, C57BL/6J male mice
Description: Each time point represents mean±SEM of 5 mice.
Fifty C57BL/6J male mice (10-12 weeks of age) were used in this study. A single dose of 500U N-ABD094-rhArg (SEQ ID NO: 50) was administered to the mouse via i.p. injection. Blood samples were collected from the saphenous vein using heparinized capillary tubes, and were centrifuged at 800×g to obtain plasma.
Following injection, serum was collected at Hour 2, Hour 4, Hour 8, Hour 16, Hour 24 (Day 1) and from Day 2 to Day 12 at 24-hour intervals, and from Day 12 to Day 30 at 72-hour intervals. To strike a balance between the number of animals used and to minimize the effect on results of pharmacokinetics and pharmacodynamics study caused by removal of N-ABD094-rhArg (SEQ ID NO: 50) from the mouse as a consequence of blood collection, mice were divided into 10 groups, with n=5 in each group, and subjected to blood collection at the indicated time-point(s) shown in brackets: Group 1 (Hour 2), Group 2 (Hour 4), Group 3 (Hour 8), Group 4 (Hour 16), Group 5 (Hour 24), Group 6 (Day 2, Day 7, Day 12), Group 7 (Day 3, Day 8, Day 18), Group 8 (Day 4, Day 9, Day 21), Group 9 (Day 5, Day 10, Day 15, Day 24), Group 10 (Day 0, Day 6, Day 11, Day 27, Day 30).

[1] = Treatment of pre-existing HFD-induced obesity (DIO), male mice; type: in vivo, C57BL/6J male mice
Text: After confirming that concurrent treatment with N-ABD094-rhArg (SEQ ID NO: 50) can effectively prevent HFD-induced obesity and associated complications and comorbidities including insulin resistance, glucose intolerance, hyperglycemia, dyslipidemia, hepatic steatosis, chronic inflammation, and whitening of BAT, next, we studied the efficacy of N-ABD094-rhArg (SEQ ID NO: 50) in reducing obesity and reversing these disorders in mice with pre-existing diet-induced obesity (DIO). C57BL/6J male mice were fed a HFD from 5 week old for 12 weeks to induce obesity and associated complications and comorbidities. They were then stratified according to the bodyweight into 2 groups and treated with either 600-700U N-ABD094-rhArg (SEQ ID NO: 50) or saline as vehicle control at 7-day intervals for 12 weeks while continued to be fed the HFD. One group of mice were fed a matched low fat diet (LFD) and injected with saline throughout the study to serve as the lean control of various measurements. Two cohorts, with n=5 in each group, have been separately conducted. Mice were housed in groups of 5. Similar results were obtained in the two independent cohorts. Data of one cohort of mice were presented in Examples 23-28.

B1: N-ABD094-rhArg: albumin binding domain ABD094 fused N-terminally to recombinant human arginase I, SEQ ID NO: 50 (protein)
chain: MHHHHHHDEAVDANSLAEAKEAANAELDSYGVSDFYKRLIDKAKTVEGVEALKDAILAALPSGSNNNNNNGSGGMSAKSRTIGIIGAPFSKGQPRGGVEEGPTVLRKAGLLEKLKEQECDVKDYGDLPFADIPNDSPFQIVKNPRSVGKASEQLAGKVAEVKKNGRISLVLGGDHSLAIGSISGHARVHPDLGVIWVDAHTDINTPLTTTSGNLHGQPVSFLLKELKGKIPDVPGFSWVTPCISAKDIVYIGLRDVDPGEHYILKTLGIKYFSMTEVDRLGIGKVMEETLSYLLGRKKRPIHLSFDVDGLDPSFTPATGTPVVGGLTYREGLYITEEIYKTGLLSGLDIMEVNPSLGKTPEEVTRTVNTAVAITLACFGLAREGNHKPIDYLNPPK
modifications: Mn2+; N-ABD094-rhArg, Synthesized in the Lab
Plasma arginine; 500U i.p.
  plasma arginine concentration reached within 2 hour after injection: 1 µM
Plasma arginine; Day 2 after i.p. 500U
  Plasma arginine concentrations (Mean of 5 mice ± SEM): 0.944 ± 0.007 µM
Plasma arginine; Day 3 after i.p. 500U
  Plasma arginine concentrations (Mean of 5 mice ± SEM): 0.965 ± 0.008 µM
Plasma arginine; Day 4 after i.p. 500U
  Plasma arginine concentrations (Mean of 5 mice ± SEM): 0.535 ± 0.121 µM
Plasma arginine; Day 5 after i.p. 500U
  Plasma arginine concentrations (Mean of 5 mice ± SEM): 0.681 ± 0.043 µM
Plasma arginine; Day 6 after i.p. 500U
  Plasma arginine concentrations (Mean of 5 mice ± SEM): 0.896 ± 0.089 µM
Plasma arginine; Day 7 after i.p. 500U
  Plasma arginine concentrations (Mean of 5 mice ± SEM): 0.792 ± 0.135 µM
Plasma arginine; Day 8 after i.p. 500U
  Plasma arginine concentrations (Mean of 5 mice ± SEM): 0.916 ± 0.079 µM
Plasma arginine; Day 9 after i.p. 500U
  Plasma arginine concentrations (Mean of 5 mice ± SEM): 1.224 ± 0.178 µM
Plasma arginine; Day 10 after i.p. 500U
  Plasma arginine concentrations (Mean of 5 mice ± SEM): 0.721 ± 0.054 µM
Plasma arginine; Day 11 after i.p. 500U
  Plasma arginine concentrations (Mean of 5 mice ± SEM): 3.828 ± 1.511 µM
Plasma arginine; Day 12 after i.p. 500U
  Plasma arginine concentrations (Mean of 5 mice ± SEM): 7.607 ± 2.325 µM
Plasma arginine; Day 15 after i.p. 500U
  Plasma arginine concentrations (Mean of 5 mice ± SEM): 31.283 ± 4.569 µM
Plasma arginine; Day 18 after i.p. 500U
  Plasma arginine concentrations (Mean of 5 mice ± SEM): 48.648 ± 3.989 µM
Plasma arginine; Day 21 after i.p. 500U
  Plasma arginine concentrations (Mean of 5 mice ± SEM): 73.55 ± 3.76 µM
Plasma arginine; Day 24 after i.p. 500U
  Plasma arginine concentrations (Mean of 5 mice ± SEM): 76.07 ± 4.92 µM
Plasma arginine; Day 27 after i.p. 500U
  Plasma arginine concentrations (Mean of 5 mice ± SEM): 111.09 ± 6.21 µM
Plasma arginine; Day 30 after i.p. 500U
  Plasma arginine concentrations (Mean of 5 mice ± SEM): 110.91 ± 3.81 µM
Plasma arginine; Hour 2 after i.p. 500U
  Plasma arginine concentrations (Mean of 5 mice ± SEM): 1.007 ± 0.013 µM
Plasma arginine; Hour 4 after i.p. 500U
  Plasma arginine concentrations (Mean of 5 mice ± SEM): 0.934 ± 0.021 µM
Plasma arginine; Hour 8 after i.p. 500U
  Plasma arginine concentrations (Mean of 5 mice ± SEM): 0.912 ± 0.006 µM
Plasma arginine; Hour 16 after i.p. 500U
  Plasma arginine concentrations (Mean of 5 mice ± SEM): 0.943 ± 0.010 µM
Plasma arginine; Hour 24 after i.p. 500U
  Plasma arginine concentrations (Mean of 5 mice ± SEM): 0.934 ± 0.007 µM
[1]; 4 weeks after treatment (35.1 prior to treatment)
  HOMA-IR score: 1.2
[1]; 12 weeks
  Mcp1 and Tgfb expression in pancreas: significantly downregulate
  Mcp1 expression in perigonadal WAT: significantly downregulated
  WAT within the pancreas and heart (histology): prominent reduction
  amount of collagen fibres in kidney (Sirius red): prominently reduced
  anti-inflammatory genes (Il10, Il22, Infg) in liver: markedly upregulate
  lipid droplets in liver (oil red O): dramatic clearance
  liver triglyceride concentrations: reduced to a level similar to the lean control
  plasma ALT and AST concentrations: comparable to the lean control
  profibrotic gene Col1a1 in kidney: greatly suppressed
  profibrotic gene Tgfb in liver: restored to a level similar to the lean control
  proinflammatory genes (Il1a, Il1b) in liver: significantly downregulate
  proinflammatory genes (Mcp1, Tnfa, Il1b) in kidney, downregulated to: levels similar to the lean control
  serum concentrations of Mcp1: corrected to a level similar to the lean control mice
  triglyceride concentrations in kidney, pancreas, heart and skeletal muscle: restored a level similar to the lean control
  vacuoles in renal tubules and lipids in glomeruli (histology): marked reduction
[1]; 12 weeks, to a level similar to lean control
  weight of kidney, pancreas and heart: significantly reduce
[1]; 600-700U at 7-day intervals, by 5 weeks, HFD continued
  reduction of bodyweight: over 30%
[1]; 600-700U weekly
  fasting plasma leptin and total cholesterol levels: markedly reduced to normal levels
[1]; 600-700U weekly, 12 weeks
  adipocyte size in WAT (histology): prominent diminution
  weight of fat pad at visceral and subcutaneous depots: significantly reduced
[1]; 600U weekly, 12 weeks
  mRNA levels of lipogenesis related genes in liver: significantly downregulated
[1]; by 3 weeks of treatment
  glucose tolerance (GTT): significant improvement
[1]; by 4 weeks of treatment
  fasting blood glucose and plasma insulin: restored to levels similar to the lean control mice
[1]; by 4 weeks of treatment, comparable to lean control
  insulin sensitivity (ITT): marked increase
[1]; by 7 weeks of treatment, level similar to lean control
  glucose tolerance (GTT): fully restored
